Reference: US20090098568A1

Target: cyclophilin A, N-terminally His- and FLAG-tagged fusion protein (UniProt P62937)
Assay: SPR (Biacore S51); 1 uM cyclosporin A injected for 1.5 minutes over Cyph immobilized (approx. 3,400 RU) on an NTA sensor chip

UniProt P62937, sequence (P62937 other isoform, or with tags, fused parts or gaps limits assumed): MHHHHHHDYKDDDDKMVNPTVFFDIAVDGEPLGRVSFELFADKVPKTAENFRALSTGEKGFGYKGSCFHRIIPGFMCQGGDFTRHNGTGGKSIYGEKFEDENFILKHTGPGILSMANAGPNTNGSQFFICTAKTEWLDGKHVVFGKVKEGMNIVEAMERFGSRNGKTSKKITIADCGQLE

response (RU): 43 RU
Substance: Cyclosporin A (peptide)
